# From PMC12484072
# Target: SaNsrP, transmembrane permease of the BceAB-type ABC transporter SaNsrFP from Streptococcus agalactiae (S. agalactiae)
# Experiment: SAXS
substance,measurement,value
"SaNsrF, nucleotide-binding domain of the BceAB-type ABC transporter SaNsrFP from Streptococcus agalactiae (natural protein)",stoichiometry N,2
